Test results reported in patent publication US20240247080A1, “GLP1/GIP/NPY2 RECEPTOR TRIPLE AGONISTS” (Boehringer Ingelheim International GmbH, priority 2022, published 2024).
Starred links: 1 amine or outer side, 2 acyl side, 3 side chain; linkers in the order of their positions; H or OH if unused. Non-standard residues stand in square brackets, D forms with d. Groups on a side chain read outwards from the residue. No end group written: not given here. *: point of attachment. C20 diacid = O=C(O)CCCCCCCCCCCCCCCCCCC(=O)*; C18 diacid = O=C(O)CCCCCCCCCCCCCCCCC(=O)*; γGlu = O=C(O)[C@H](CCC(=O)[*:2])N[*:1]; εLys = N[C@@H](CCCCN[*:1])C(=O)[*:2]; AEEA = NCCOCCOCC(=O)O; Aib = CC(C)(N)C(=O)O

T1: NPY2 receptor (human (printed as hNPY2R), UniProt P49146 1-381)
T1 sequence (looked up): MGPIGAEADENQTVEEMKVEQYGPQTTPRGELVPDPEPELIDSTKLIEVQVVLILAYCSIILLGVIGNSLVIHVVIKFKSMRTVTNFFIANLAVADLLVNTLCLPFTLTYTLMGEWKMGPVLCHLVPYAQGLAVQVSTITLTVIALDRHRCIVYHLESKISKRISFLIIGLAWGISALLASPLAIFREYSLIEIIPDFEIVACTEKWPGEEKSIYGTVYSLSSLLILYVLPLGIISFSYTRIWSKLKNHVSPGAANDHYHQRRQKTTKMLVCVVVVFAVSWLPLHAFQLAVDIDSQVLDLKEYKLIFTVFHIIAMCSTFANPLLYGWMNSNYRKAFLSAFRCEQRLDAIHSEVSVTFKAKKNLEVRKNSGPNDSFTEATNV

T2: GIP receptor (human (printed as hGIPR), UniProt P48546 22-466)
T2 sequence (looked up): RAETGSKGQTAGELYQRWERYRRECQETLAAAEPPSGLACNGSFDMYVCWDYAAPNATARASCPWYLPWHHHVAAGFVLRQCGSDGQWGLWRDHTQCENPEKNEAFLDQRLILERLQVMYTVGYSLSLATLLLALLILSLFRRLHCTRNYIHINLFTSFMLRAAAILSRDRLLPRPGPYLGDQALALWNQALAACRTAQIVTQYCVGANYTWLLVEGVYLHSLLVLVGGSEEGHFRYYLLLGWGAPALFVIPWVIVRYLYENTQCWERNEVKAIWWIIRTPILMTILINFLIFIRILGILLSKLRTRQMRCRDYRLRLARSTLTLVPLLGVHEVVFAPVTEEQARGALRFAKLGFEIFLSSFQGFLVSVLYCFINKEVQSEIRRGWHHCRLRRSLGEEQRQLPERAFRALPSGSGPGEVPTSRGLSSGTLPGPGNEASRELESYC

T3: human GIP receptor (human, UniProt P48546 22-466)
T3 sequence (looked up): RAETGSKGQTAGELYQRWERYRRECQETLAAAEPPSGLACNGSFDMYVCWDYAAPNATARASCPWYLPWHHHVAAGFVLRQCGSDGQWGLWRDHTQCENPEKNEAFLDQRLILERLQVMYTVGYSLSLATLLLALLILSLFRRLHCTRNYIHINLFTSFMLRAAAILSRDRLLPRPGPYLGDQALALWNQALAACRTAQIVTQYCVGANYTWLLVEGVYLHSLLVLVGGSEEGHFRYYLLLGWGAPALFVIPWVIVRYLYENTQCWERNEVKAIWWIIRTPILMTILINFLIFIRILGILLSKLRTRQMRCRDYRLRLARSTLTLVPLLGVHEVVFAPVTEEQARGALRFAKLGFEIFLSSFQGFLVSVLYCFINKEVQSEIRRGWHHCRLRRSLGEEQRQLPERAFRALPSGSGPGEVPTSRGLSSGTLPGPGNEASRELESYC

T4: human neuropeptide Y2 (NPY2) receptor (human, UniProt P49146 1-381)
T4 sequence (looked up): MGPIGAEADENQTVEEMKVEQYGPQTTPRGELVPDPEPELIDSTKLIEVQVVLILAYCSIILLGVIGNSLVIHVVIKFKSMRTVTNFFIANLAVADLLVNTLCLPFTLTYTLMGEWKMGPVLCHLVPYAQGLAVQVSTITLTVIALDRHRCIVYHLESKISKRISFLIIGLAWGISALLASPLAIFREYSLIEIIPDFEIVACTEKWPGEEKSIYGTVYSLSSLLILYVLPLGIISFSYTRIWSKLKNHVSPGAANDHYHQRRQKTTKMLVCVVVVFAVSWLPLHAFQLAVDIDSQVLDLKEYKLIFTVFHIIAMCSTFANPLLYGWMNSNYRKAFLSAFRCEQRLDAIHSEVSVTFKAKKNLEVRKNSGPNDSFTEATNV


Experiments:
Test in all cases: cell-based or functional assay
GLP-1 receptor = GLP-1 receptor (human (printed as hGLP1R), UniProt P43220 24-463)
NPY2 receptor = biological target: T1, NPY2 receptor
GIP receptor = biological target: T2, GIP receptor
human GLP-1 receptor = human GLP-1 receptor (human, UniProt P43220 24-463)
human GIP receptor = biological target: T3, human GIP receptor
[1] = biological target: T4, human neuropeptide Y2 (NPY2) receptor

EC50 hGLP1R 0.5% hP (CreLuc) (GLP-1 receptor) [nM]	EC50 hGLP1R 100% hP (CreLuc) (GLP-1 receptor) [nM]	EC50 hNPY2R 0.5% hP (CreLuc) (NPY2 receptor) [nM]	EC50 hNPY2R 100% hP (CreLuc) (NPY2 receptor) [nM]	EC50 hGIPR 0.5% hP (CreLuc) (GIP receptor) [nM]	EC50 hGIPR 100% hP (CreLuc) (GIP receptor) [nM]	EC50, CreLuc assay, 0.5% hP (human GLP-1 receptor) [nM]	EC50, CreLuc assay, 100% hP (human GLP-1 receptor) [nM]	EC50, CreLuc assay, 0.5% hP (human GIP receptor) [nM]	EC50, CreLuc assay, 100% hP (human GIP receptor) [nM]	EC50, CreLuc assay, 0.5% hP [1] [nM]	EC50, CreLuc assay, 100% hP [1] [nM]	Binder
0.1	2.59	14.5	33.5	0.29	1.25	–	–	–	–	–	–	Y[Aib]EGTFTSDYSI[Aib]LEKQAQ[Aib]AFVQWLIK([γGlu-γGlu-γGlu-γGlu-γGlu-γGlu-C18 diacid])GGPSEGASLRHYYNWLTRQRY-NH2 (also: TFA salt) [Compound 252]
0.17	2.52	22.3	72	0.16	1.23	–	–	–	–	–	–	Y[Aib]EGTFTSDYSI[Aib]LEKQAQ[Aib]AFIEWLIKGGPSEGASLRHYYNWLTRQRY-NH2 (not fully specified (residue 28); also: TFA salt) [Compound 258]
0.07	1.69	17.8	30.9	0.22	0.63	–	–	–	–	–	–	Y[Aib]EGTFTSDYSI[Aib]LEKQAQ[Aib]AFVEWLIK([AEEA-AEEA-γGlu-γGlu-γGlu-γGlu-C18 diacid])GGPSSGASLRHYYNWLTRQRY-NH2 (also: TFA salt) [Compound 254]
0.08	2.48	16.9	96.3	0.14	1.48	–	–	–	–	–	–	YXEGTFTSDYSIXLEKQAQXAFVQWLIKGGPSEGASLRHYYNWLTRQRY (Aib at 2, 13, 20; K28 side chain carries C18DA-E-E-E-E-E (SEQ ID NO: 636); C-terminal amide) [Compound 257]
0.34	7.31	17.3	40.9	0.46	1.23	–	–	–	–	–	–	YXEGTFTSDYSIXLEKQAQXEFVEWLIKGGPSEGASLRHYYNWLTRQRY (Aib at 2, 13, 20; K28 side chain carries C18DA-gGlu-gGlu-gGlu-gGlu-gGlu-gGlu-eLys; C-terminal amide) [Compound 255]

The next lines start with the binder.

Binder	EC50 hGLP1R 0.5% hP (CreLuc) (GLP-1 receptor) [nM]	EC50 hGLP1R 100% hP (CreLuc) (GLP-1 receptor) [nM]	EC50 hNPY2R 0.5% hP (CreLuc) (NPY2 receptor) [nM]	EC50 hNPY2R 100% hP (CreLuc) (NPY2 receptor) [nM]	EC50 hGIPR 0.5% hP (CreLuc) (GIP receptor) [nM]	EC50 hGIPR 100% hP (CreLuc) (GIP receptor) [nM]	EC50, CreLuc assay, 0.5% hP (human GLP-1 receptor) [nM]	EC50, CreLuc assay, 100% hP (human GLP-1 receptor) [nM]	EC50, CreLuc assay, 0.5% hP (human GIP receptor) [nM]	EC50, CreLuc assay, 100% hP (human GIP receptor) [nM]	EC50, CreLuc assay, 0.5% hP [1] [nM]	EC50, CreLuc assay, 100% hP [1] [nM]
Y[Aib]EGTFTSDYSI[Aib]LEKQAQ[Aib]AFVQWLIK([εLys-γGlu-γGlu-γGlu-γGlu-γGlu-C20 diacid])GGPSEGASLRHYYNWLTRQRY-NH2 (also: TFA salt) [Compound 242]	0.13	4.69	7.54	28.8	0.32	1.72	–	–	–	–	–	–
YXEGTFTSDYSIXLEKQAQXAFVQWLIKGGQRSYASLRHYYNWLTRQRY (Aib at 2, 13, 20; K28 side chain: C20DA-gGlu-gGlu-gGlu-gGlu-gGlu-gGlu-eLys; C-terminal NH2) [Compound 3]	–	–	–	–	–	–	0.45	14.4	0.53	6.56	4.45	23
YXEGTFTSDYSIXLEKQAQXAFVQWLIKGGPSEGASLRHYYNWLTRQRY (Aib at 2, 13, 20; K28 side chain carries C18DA-E-E-E-E-E-E-eLys (SEQ ID NO: 643); C-terminal amide) [Compound 249]	0.13	1.78	17.8	50	0.19	1.25	–	–	–	–	–	–
YXEGTFTSDYSIXLEKQAQXAFVEWLIKGGPSTGASLRHYYNWLTRQRY (Aib at 2, 13, 20; K28 side chain carries C20DA-gGlu-gGlu-gGlu-gGlu-gGlu-gGlu-eLys; C-terminal amide) [Compound 244]	0.19	5.98	13.5	58.3	0.32	2.32	–	–	–	–	–	–
YXEGTFTSDYSIXLEKQAQXAFVQWLIKGGPSEGASLRHYYNWLTRQRY (Aib at 2, 13, 20; K28 side chain carries C18DA-gGlu-gGlu-gGlu-gGlu-gGlu-OEG-OEG; C-terminal amide) [Compound 246]	0.11	2.7	12.8	28.2	0.16	0.95	–	–	–	–	–	–
